Measurements published in US20060040325A1 (AstraZeneca / MedImmune, published 2006).

What was measured:
[1] = target: T1, FcγRIIIA-streptavidin fusion protein (tetramer) (human; Streptomyces avidinii, UniProt P08637 17-208); assay: ELISA: antibody captured on protein A/G, FcγRIIIA tetramer, biotin-HRP, OD450
T1 construct: extracellular domain; also called FcγRIIIA tetramer; Fcγtetramer; not shown: streptavidin, amplified with primers SA1/SA2 from genomic DNA of Streptomyces avidinii
Description: ELISA for FcγRIIIA Tetramer Binding: Microtiter plates were coated with protein A/G (PIERCE) solution (0.25 μg/ml) and incubated at 4° C. overnight. The plates were then washed with PB S/0.1% Tween and any remaining binding sites were blocked with 1% BSA. 50 μl of test antibody at 1:1 dilution (from 5000 ng/ml to 4.9 ng/ml), was added to each well and inclubated for 60 min at 37° C. 50 μl of 1:500 dilution of the Fcγtetramer was added to each well and incubated for 60 min at 37° C. followed by washing. 50 μl of 1:1000 dilution of biotin-conjugated HRP (PIERCE) was added to each well and incubated for 30 min at 37° C. Detection was carried out by adding 30 μl of tetramethylbenzidine (TMB) substrate (Pierce) followed by neutralization with 30 μl of 0.2 M H₂SO₄. The absorbance was read at 450 nm.

[2] = target: T2, human C1q complement protein (human, UniProt P02745 23-245; P02746 28-253; P02747 29-245); assay: ELISA: antibody coated on the plate, human C1q, anti-C1q antibody, HRP conjugate, OD450
T2 construct: Bought protein ('Quidal, SanDiego')
T2 sequence (P02745 23-245 limits assumed, chain 1 of 3): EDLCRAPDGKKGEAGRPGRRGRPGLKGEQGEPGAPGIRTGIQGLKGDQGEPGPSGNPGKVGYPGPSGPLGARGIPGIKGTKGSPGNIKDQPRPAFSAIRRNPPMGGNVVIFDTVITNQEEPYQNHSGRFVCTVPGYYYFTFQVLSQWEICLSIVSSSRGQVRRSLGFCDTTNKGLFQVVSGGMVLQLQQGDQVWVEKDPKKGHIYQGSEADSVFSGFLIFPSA
T2 sequence (P02746 28-253 limits assumed, chain 2 of 3): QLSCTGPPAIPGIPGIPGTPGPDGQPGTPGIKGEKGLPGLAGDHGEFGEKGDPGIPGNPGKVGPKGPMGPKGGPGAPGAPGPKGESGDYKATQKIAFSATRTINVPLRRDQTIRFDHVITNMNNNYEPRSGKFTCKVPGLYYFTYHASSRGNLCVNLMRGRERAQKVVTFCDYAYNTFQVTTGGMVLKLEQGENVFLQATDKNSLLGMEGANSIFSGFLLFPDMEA
T2 sequence (P02747 29-245 limits assumed, chain 3 of 3): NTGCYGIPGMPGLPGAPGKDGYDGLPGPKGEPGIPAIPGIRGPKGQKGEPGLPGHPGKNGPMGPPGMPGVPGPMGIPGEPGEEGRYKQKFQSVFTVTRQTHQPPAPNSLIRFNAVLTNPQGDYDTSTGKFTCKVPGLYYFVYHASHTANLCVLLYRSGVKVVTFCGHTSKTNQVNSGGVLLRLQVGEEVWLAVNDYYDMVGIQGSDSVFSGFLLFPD
Description: ELISA for C1q Binding: Microtiter plates were coated with 50 μl of test antibody at concentration range from 20 μg/ml to […] and incubated at 4° C. overnight. The plate was then blocked with 5% nonfat powdered milk for 60 min at 37° C. 50 μl of 5 μg/ml human C1q complement protein (Quidal, SanDiego) was added to each well and inclubated for 60 min at 37° C. 50 μl of 1:1000 dilution of anti-complement C1q antibody (Biodesign) was added to each well and incubated for 60 min at 37° C. 50 μl of 1:1000 dilution of donkey anti-sheep/goat antibody-conjugated HRP (PIERCE) was added to each well and incubated for 60 min at 37° C. Detection was carried out by adding 30 μl of tetramethylbenzidine (TMB) substrate (Pierce) followed by neutralization with 30 μl of 0.2 M H₂SO₄. The absorbance was read at 450 nm.

[3] = target: T3, FcγRIIIA (soluble receptor used as analyte in the BIAcore runs) (human, UniProt P08637 17-208); assay: SPR (BIAcore 3000), IgG amine-coupled to CM5, soluble FcγRIIIA injected; Scatchard plot of Req; Run 3
T3 construct: extracellular domain; The BIAcore methods only say 'FcγRIIIA'; also called FcγIIIA
T3 sequence (P08637 17-208): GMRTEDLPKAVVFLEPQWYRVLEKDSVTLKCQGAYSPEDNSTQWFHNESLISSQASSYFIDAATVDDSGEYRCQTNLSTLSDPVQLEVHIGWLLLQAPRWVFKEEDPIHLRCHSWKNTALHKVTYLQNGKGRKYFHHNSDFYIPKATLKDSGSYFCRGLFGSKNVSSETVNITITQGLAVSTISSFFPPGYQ
Description: (§1) FcγRIIIA was serially diluted in 0.01 M HEPES pH 7.4 containing 0.15 M NaCl, 3 mM EDTA and 0.005% P20, at concentrations ranging from 16 uM down to 7.8 nM. Duplicate injections of each concentration were made. All binding experiments were performed at 25° C., and at a flow rate of 10 uL/min. Binding was monitored for 25 min. Following each injection of FcγRIIIA, the IgG surfaces were regenerated with a 30 sec. pulse of 5 mM HCl. FcγRIIIA was also passed over a blank reference cell which is connected, in series, to the IgG-containing flow cells. The steady-state binding curves were also corrected for injection artifacts by subtraction of buffer injections. This doubly-corrected data was then fit to a steady-state isotherm provided by the instrument manufacturer (Pharmacia Biosensor, Uppsala, Sweden) to derive the respective equilibrium binding constants (KD). Separately, a Scatchard plot of the Req data from each IgG surface was constructed to confirm the results of the binding isotherms.

[4] = target: T3, FcγRIIIA (soluble receptor used as …); assay: SPR (BIAcore 3000), IgG amine-coupled to CM5, soluble FcγRIIIA injected; steady-state isotherm; Run 3
Description: as §1

[5] = target: T3, FcγRIIIA (soluble receptor used as …); assay: SPR (BIAcore 3000), Run 3; calculated from isotherm KD values against wild type 3F2
Description: as §1

T1 sequence (P08637 17-208 limits assumed): as the sequence (P08637 17-208) above

Binder	EC50 (read off the curve) [1]	binding result [2]	Kd [3]	Kd [4]	Fold increase over WT [5]
3F2 (wild type anti-EphA2 antibody, IgG1) (antibody, domain: IgG1 heavy chain constant region; 3F2 variable regions placed in the Vitaxin® IgG1 plasmid and made in NS0 cells; The light chain constant region is not described; also called 3F2-wt; 3F2-WT; copies: 2 + 2) heavy: not shown VL: AIQLTQSPSSLSASVGDRVTITCRASQSISNNLHWYLQKPGQSPQLLIYYGFQSISGVPSRFSGSGSGTDFTLTISSLQPEDFATYYCQQANSWPLTFGGGTKLEIK	~0.2 µg/mL	binds	14200 nM	15600 nM	–
3F2-1M (3F2 Fc variant I332E, IgG1) (antibody, name in EU numbering, domain: IgG1 heavy chain constant region; Made in NS0 cells; The light chain constant region is not described; also called 3F2 I332E; 3F2-IM; copies: 2 + 2) heavy: not shown VL: AIQLTQSPSSLSASVGDRVTITCRASQSISNNLHWYLQKPGQSPQLLIYYGFQSISGVPSRFSGSGSGTDFTLTISSLQPEDFATYYCQQANSWPLTFGGGTKLEIK	~0.05 µg/mL	binds	1680 nM	1770 nM	8.8 fold
3F2-3M (3F2 Fc variant S239D/A330L/I332E, IgG1) (antibody, name in EU numbering, domain: IgG1 heavy chain constant region; Made in NS0 cells; The light chain constant region is not described; also called 3F2 S239D/A330L/I332E; 3M Fc variant; copies: 2 + 2) heavy: EVQLVESGGGVVRPGGSLRLSCAASGFTVSDYSMNWVRQAPGKGLEWIGFIRNKANAYTTEYSASVKGRFTISRDDSKNTLYLQMNSLKTEDTAVYYCTTYPRYHAMDSWGQGTMVTVSSASTKGPSVFPLAPSSKSTSGGTAALGCLVKDYFPEPVTVSWNSGALTSGVHTFPAVLQSSGLYSLSSVVTVPSSSLGTQTYICNVNHKPSNTKVDKKVEPKSCDKTHTCPPCPAPELLGGPDVFLFPPKPKDTLMISRTPEVTCVVVDVSHEDPEVKFNWYVDGVEVHNAKTKPREEQYNSTYRVVSVLTVLHQDWLNGKEYKCKVSNKALPLPEEKTISKAKGQPREPQVYTLPPSRDELTKNQVSLTCLVKGFYPSDIAVEWESNGQPENNYKTTPPVLDSDGSFFLYSKLTVDKSRWQQGNVFSCSVMHEALHNHYTQKSLSLSPGK VL: AIQLTQSPSSLSASVGDRVTITCRASQSISNNLHWYLQKPGQSPQLLIYYGFQSISGVPSRFSGSGSGTDFTLTISSLQPEDFATYYCQQANSWPLTFGGGTKLEIK	~0.05 µg/mL	binds	162 nM	158 nM	99 fold
